Measurements: patent EP4596580A1 (Staidson (Beijing) Biopharmaceuticals Co., Ltd., dated 2025)
Substitutions are numbered along the chain they refer to. Read-outs that look alike come from different tables or passages of the source. Values belong to the binder of their own block, whether it stands above or below them.

Legend:
[1] = biological target: T1, His-human LIGHT (human); assay: cell-based or functional assay
T1 chain: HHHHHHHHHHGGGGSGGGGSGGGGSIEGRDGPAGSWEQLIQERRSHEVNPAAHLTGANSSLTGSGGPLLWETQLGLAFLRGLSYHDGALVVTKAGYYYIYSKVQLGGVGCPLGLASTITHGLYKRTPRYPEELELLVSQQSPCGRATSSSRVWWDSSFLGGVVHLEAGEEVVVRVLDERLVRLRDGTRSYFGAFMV

[2] = biological target: T2, LIGHT on the surface of HEK293-LIGHT stable cells (human, UniProt O43557 1-240); assay: cell-based or functional assay
[3] = biological target: T1, His-human LIGHT; assay: cell-based or functional assay
[4] = biological target: T1, His-human LIGHT; assay: ELISA, His-huLIGHT coated
[5] = biological target: T3, His-cynomolgus monkey LIGHT (cynomolgus monkey); assay: ELISA, His-cynoLIGHT coated
T3 construct: also called His-cynoLIGHT
T3 chain: T1 chain with P32H, A33G, E47Q, V48N, S83D, V91A, T92N, S149N, A167V

[6] = biological target: T4, hFc-human LIGHT (human); assay: competition ELISA, LTβR-His coated, hFc-huLIGHT added
T4 construct: also called hFc-huLIGHT

[7] = biological target: T1, His-human LIGHT; assay: SPR, Biacore 8K, antibody on CM5 chip, human LIGHT
[8] = biological target: T1, His-human LIGHT; assay: cell-based or functional assay
[9] = biological target: T2, LIGHT on the surface of HEK293-LIGHT …; assay: cell-based or functional assay; remark: listed apart in the source
[10] = biological target: T1, His-human LIGHT; assay: cell-based or functional assay
[11] = biological target: T1, His-human LIGHT; assay: cell-based or functional assay
[12] = biological target: T1, His-human LIGHT; assay: cell-based or functional assay
[13] = biological target: T1, His-human LIGHT; assay: ELISA, His-huLIGHT coated
[14] = biological target: T4, hFc-human LIGHT; assay: competition ELISA, LTβR-His coated, hFc-huLIGHT added; remark: listed apart in the source

B1: hum_LT-m37-3 (antibody, human IgG4, V domains shown)
VH: QVQLVQSGAEVKKPGASVKVSCKASGYSFTGYFINWVRQAPGQGLEWIGRIYPYNVNTFYNQNFKGRATMTADKSTSTAYMELSSLRSEDTAVYYCGRGTHYYGSSGAMDYWGQGTLVTVSS
VL: EIVLTQSPATLSVSPGERATLSCKASQNVGTAVAWYQQKPGQSPRLLIYSASNRYTGIPARFSGSGSGTEFTLTISSLQSEDFAVYFCQQYSSYPYTFGGGTKVEIK
notes: humanized from LT-m37
IC50, LTβR NF-κB luciferase reporter, free LIGHT [1]: 0.399 µg/mL | IC50, LTβR NF-κB luciferase reporter, HEK293-LIGHT cells [2]: 1.79 µg/mL | IC50, HVEM NF-κB luciferase reporter, free LIGHT [3]: 0.0747 µg/mL | EC50 [4]: 0.0875 µg/mL | EC50 [5]: 55.4 pM

B2: hum_LT-m37-2 (antibody, human IgG4, V domains shown)
VH: B1 VH with M70L
VL: B1 VL
notes: humanized from LT-m37
IC50, LTβR NF-κB luciferase reporter, free LIGHT [1]: 0.293 µg/mL | IC50, LTβR NF-κB luciferase reporter, HEK293-LIGHT cells [2]: 3.54 µg/mL | IC50, HVEM NF-κB luciferase reporter, free LIGHT [3]: 0.0918 µg/mL | EC50 [4]: 0.081 µg/mL | EC50 [5]: 51.7 pM | IC50 [6]: 59.8 pM

B3: hum_LT-m37-5 (antibody, human IgG4, V domains shown)
VH: B1 VH with G44S, M70L
VL: B1 VL with L4M
notes: humanized from LT-m37
IC50, LTβR NF-κB luciferase reporter, free LIGHT [1]: 0.16 µg/mL | IC50, LTβR NF-κB luciferase reporter, HEK293-LIGHT cells [2]: 2.22 µg/mL | IC50, HVEM NF-κB luciferase reporter, free LIGHT [3]: 0.062 µg/mL | EC50 [4]: 0.0837 µg/mL | EC50 [5]: 51.4 pM | Kd [7]: 57.5 pM | koff [7]: 6.34e-05 s⁻¹ | kon [7]: 1.1e+06 M⁻¹ s⁻¹ | IC50 [6]: 77.1 pM

B4: hum_LT-m37-6 (antibody, human IgG4, V domains shown)
VH: B1 VH with M70L
VL: B1 VL with L4M
notes: humanized from LT-m37
IC50, LTβR NF-κB luciferase reporter, free LIGHT [1]: 0.224 µg/mL | IC50, LTβR NF-κB luciferase reporter, HEK293-LIGHT cells [2]: 1.86 µg/mL | IC50, HVEM NF-κB luciferase reporter, free LIGHT [3]: 0.0518 µg/mL | EC50 [4]: 0.0939 µg/mL | EC50 [5]: 58.8 pM | Kd [7]: 40.8 pM | koff [7]: 5.25e-05 s⁻¹ | kon [7]: 1.29e+06 M⁻¹ s⁻¹ | IC50 [6]: 75.3 pM

The remaining lines, values ahead:

IC50, LTβR NF-κB luciferase reporter, free LIGHT [8]: 158 pM | IC50, LTβR NF-κB luciferase reporter, HEK293-LIGHT cells [9]: 2550 pM | IC50, HVEM NF-κB luciferase reporter, free LIGHT [10]: 179 pM | IC50, LIGHT induced MMP-9 production in BEAS-2B bronchial epithelial cells [11]: 0.305 µg/mL | IC50, proliferation of CD3+ T cells stimulated by plate-bound anti-CD3 and His-huLIGHT (CellTiter Glo) [12]: 0.385 µg/mL | EC50 [13]: 36.9 pM | EC50 [5]: 104 pM | IC50 [14]: 808 pM
B5: hum_LT-m37-16 (antibody, human IgG4, V domains shown)
VH: B1 VH with N57D, A68V
VL: B1 VL with F87Y
notes: humanized from LT-m37

IC50, LTβR NF-κB luciferase reporter, free LIGHT [1]: 0.129 µg/mL | IC50, LTβR NF-κB luciferase reporter, HEK293-LIGHT cells [2]: 2.56 µg/mL | IC50, HVEM NF-κB luciferase reporter, free LIGHT [3]: 0.0677 µg/mL | EC50 [4]: 0.0859 µg/mL | EC50 [5]: 52.7 pM | Kd [7]: 241 pM | koff [7]: 7.1e-05 s⁻¹ | kon [7]: 295000 M⁻¹ s⁻¹ | IC50 [6]: 74.8 pM
B6: hum_LT-m37-4 (antibody, human IgG4, V domains shown)
VH: B1 VH with A68V
VL: B1 VL
notes: humanized from LT-m37

IC50, LTβR NF-κB luciferase reporter, free LIGHT [8]: 219 pM | IC50, LTβR NF-κB luciferase reporter, HEK293-LIGHT cells [9]: 1280 pM | IC50, HVEM NF-κB luciferase reporter, free LIGHT [10]: 120 pM | IC50, LIGHT induced MMP-9 production in BEAS-2B bronchial epithelial cells [11]: 0.197 µg/mL | IC50, proliferation of CD3+ T cells stimulated by plate-bound anti-CD3 and His-huLIGHT (CellTiter Glo) [12]: 0.195 µg/mL | EC50 [13]: 65.8 pM | EC50 [5]: 130 pM | IC50 [14]: 844 pM
B7: hum_LT-m37-15 (antibody, human IgG4, V domains shown)
VH: B1 VH with N57D
VL: B1 VL with F87Y
notes: humanized from LT-m37
